Assays:
Experiment in all cases: co-IP; 293T cells co-transfected with 1 µg Vpu-cmyc variant and 2 µg HA-tetherin; lysis in 50 mM Tris-HCl pH 7.4, 150 mM NaCl, 1% Triton X-100, 1% CHAPS; IP with anti-myc antibody and protein G agarose at 4°C; blot with anti-HA; tetherin quantified by densitometry, normalized by tubulin, Vpu WT = 100%
[1] = target: Vpu TM M3IV (HIV-1 NL4-3)
[2] = target: Vpu TM NΔ2I (HIV-1 NL4-3)
[3] = target: Vpu TM CΔ2I (HIV-1 NL4-3)
[4] = target: Vpu TM M3IT (HIV-1 NL4-3)

Chain of HA-tetherin (Q10589 1-161): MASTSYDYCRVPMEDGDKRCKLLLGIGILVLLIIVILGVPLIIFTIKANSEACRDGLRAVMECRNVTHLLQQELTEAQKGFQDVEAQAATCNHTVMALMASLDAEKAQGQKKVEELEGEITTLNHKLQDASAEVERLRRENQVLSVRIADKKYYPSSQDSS

HA-tetherin (from UniProt Q10589 1-161) (natural protein)
percent of tetherin bound relative to Vpu WT (100%) [1]: > 80%
percent of tetherin bound relative to Vpu WT (100%) [2]: 50%
percent of tetherin bound relative to Vpu WT (100%) [3]: 25%
percent of tetherin bound relative to Vpu WT (100%) [4]: 10%
